# Data reported in patent US20040001826A1 (published 2004).
# B1: convulxin (Cvx), purified from the venom of Crotalus durissus terrificus (ligand)
# chain 1: GLHCPSDWYYYDQHCYRIFNEEMNWEDAEWFCTKQAKGAHLVSIKSAKEADFVAWMVTQNIEESFSHVSIGLRVQNKEKQCSTKWSDGSSVSYDNLLDLYITKCSLLKKETGFRKWFVASCIGKIPFVCKFPPQC
# chain 2: GFCCPSHWSSYDRYCYKVFKQEMTWADAEKFCTQQHTGSHLVSFHSTEEVDFVVKMTHQSLKSTFFWIGANNIWNKCNWQWSDGTKPEYKEWHEEFECLISRTFDNQWLSAPCSDTYSFVCKFEA
# B2: mouse TANGO 268 (murine GPVI) (receptor)
# chain: QSGPLPKPSLQAQPSSLVPLGQSVILRCQGPPDVDLYRLEKLKPEKYEDQDFLFIPTMERSNAGRYRCSYQNGSHWSLPSDQLELIATGVYAKPSLSAHPSSAVPQGRDVTLKCQSPYSFDEFVLYKEGDTGPYKRPEKWYRANFPIITVTAAHSGTYRCYSFSSSSPYLWSAPSDPLVLVVTGLSATPSQVPTEESFPVTESSRRPSILPTNKISTTEKPMNITASPEGLSPPIGFAHQHYAKGNLVRICLGATIIIILLGLLAEDWHSRKKCLQHRMRALQRPLPPLPLA
# notes: Full-length protein on retrovirally transduced FDC-P1, 32D and Ba/F3 cells; Signal peptide 1-21 is a SIGNALP prediction; also called mGPVI; rmGPVI
# B3: human TANGO 268 (glycoprotein VI, GPVI) (receptor)
# chain: QSGPLPKPSLQALPSSLVPLEKPVTLRCQGPPGVDLYRLEKLSSSRYQDQAVLFIPAMKRSLAGRYRCSYQNGSLWSLPSDQLELVATGVFAKPSLSAQPGPAVSSGGDVTLQCQTRYGFDQFALYKEGDPAPYKNPERWYRASFPIITVTAAHSGTYRCYSFSSRDPYLWSAPSDPLELVVTGTSVTPSRLPTEPPSSVAEFSEATAELTVSFTNKVFTTETSRSITTSPKESDSPAGPARQYYTKGNLVRICLGAVILIILAGFLAEDWHSRRKRLRHRGRAVQRPLPPLPPLPQTRKSHGGQDGGRQDVHSRGLCS
# notes: Full-length protein: in lysates of transfected CHO cells and of human platelets (blots), on transduced U937, K562 and HEL cells, and on human platelets; Signal peptide 1-20 is a SIGNALP prediction; also called hGPVI; rhGPVI
# B4: human neurotactin conjugated to human Fc (Fc fusion, UniProt P78423 25-341, looked up)
# chain: QHHGVTKCNITCSKMTSKIPVALLIHYQQNQASCGKRAIILETRQHRLFCADPKEQWVKDAMQHLDRQAAALTRNGGTFEKQIGEVKPRTTPAAGGMDESVVLEPEATGESSSLEPTPSSQEAQRALGTSPELPTGVTGSSGTRLPPTPKAQDGGPVGTELFRVPPVSTAATWQSSAPHQPGPSLWAEAKTSEAPSTQDPSTQASTASSPAPEENAPSEGQRVWGQGQSPRPENSLEREEMGPVPAHTDAFQDWGPGSMAHVSVVPVSSEGTPSREPVASGSWTPKAEEPIHATMDPQRLGVLITPVPDAQAATRRQ
# notes: Negative-control Fc fusion; not shown: human Fc
# Tests used:
# [1] = biological target: baboon GPVI on baboon platelets (baboon); assay: flow cytometry, washed baboon platelets, FITC anti-mouse IgG; negative control
# [2] = biological target: B3; assay: flow cytometry, washed human platelets, FITC anti-mouse IgG; negative control
# [3] = biological target: soluble human GPVI-Fc (extracellular domain of GPVI fused to human IgG1 Fc) (human) (UniProt Q9HCN6); assay: SPR (BIAcore), GPVI-Fc coupled to the chip, bivalent model; negative control
# collagen type I = assay: cell-based or functional assay
# [4] = biological target: baboon GPVI on baboon platelets (baboon); assay: flow cytometry, washed baboon platelets; positive control
# [5] = biological target: B3
# [6] = biological target: T1, bovine serum albumin (BSA) (UniProt P02769 25-607); assay: adhesion of 51Cr-labelled GPVI-transduced FDC-P1 cells to immobilized BSA
# T1 construct: Control surface in the cell adhesion assay
# T1 sequence (P02769 25-607 limits assumed): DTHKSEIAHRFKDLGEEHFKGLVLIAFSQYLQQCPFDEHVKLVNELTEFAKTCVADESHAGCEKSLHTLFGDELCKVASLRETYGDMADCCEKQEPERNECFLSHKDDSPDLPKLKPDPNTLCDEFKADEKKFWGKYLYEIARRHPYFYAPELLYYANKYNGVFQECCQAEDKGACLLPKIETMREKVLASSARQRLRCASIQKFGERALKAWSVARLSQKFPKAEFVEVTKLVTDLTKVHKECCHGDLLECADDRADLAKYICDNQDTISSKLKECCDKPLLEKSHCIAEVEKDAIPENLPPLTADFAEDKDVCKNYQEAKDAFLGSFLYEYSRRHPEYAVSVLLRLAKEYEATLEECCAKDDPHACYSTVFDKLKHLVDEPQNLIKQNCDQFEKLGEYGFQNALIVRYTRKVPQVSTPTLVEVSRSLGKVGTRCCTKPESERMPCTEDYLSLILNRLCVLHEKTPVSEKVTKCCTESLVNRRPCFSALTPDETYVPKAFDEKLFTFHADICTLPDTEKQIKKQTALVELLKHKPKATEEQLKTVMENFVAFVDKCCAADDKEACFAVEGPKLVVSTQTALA
# [7] = biological target: B1; assay: flow cytometry, FITC-Cvx
# [8] = biological target: B1; assay: ligand blot with 125I-Cvx on lysates of transfected CHO cells and of platelets
# [9] = biological target: T1, bovine serum albumin (BSA); assay: adhesion of 51Cr-labelled GPVI-transduced U937 cells to immobilized BSA
# [10] = biological target: T2, mouse collagen (type III) in descending aorta sections (mouse, UniProt P08121 155-1219, limits assumed); assay: immunofluorescence on mouse descending aorta sections, anti-human Fc detection
# T2 construct: The target is tissue; also called mouse type III collagen; mouse aorta sections
# T2 sequence (looked up): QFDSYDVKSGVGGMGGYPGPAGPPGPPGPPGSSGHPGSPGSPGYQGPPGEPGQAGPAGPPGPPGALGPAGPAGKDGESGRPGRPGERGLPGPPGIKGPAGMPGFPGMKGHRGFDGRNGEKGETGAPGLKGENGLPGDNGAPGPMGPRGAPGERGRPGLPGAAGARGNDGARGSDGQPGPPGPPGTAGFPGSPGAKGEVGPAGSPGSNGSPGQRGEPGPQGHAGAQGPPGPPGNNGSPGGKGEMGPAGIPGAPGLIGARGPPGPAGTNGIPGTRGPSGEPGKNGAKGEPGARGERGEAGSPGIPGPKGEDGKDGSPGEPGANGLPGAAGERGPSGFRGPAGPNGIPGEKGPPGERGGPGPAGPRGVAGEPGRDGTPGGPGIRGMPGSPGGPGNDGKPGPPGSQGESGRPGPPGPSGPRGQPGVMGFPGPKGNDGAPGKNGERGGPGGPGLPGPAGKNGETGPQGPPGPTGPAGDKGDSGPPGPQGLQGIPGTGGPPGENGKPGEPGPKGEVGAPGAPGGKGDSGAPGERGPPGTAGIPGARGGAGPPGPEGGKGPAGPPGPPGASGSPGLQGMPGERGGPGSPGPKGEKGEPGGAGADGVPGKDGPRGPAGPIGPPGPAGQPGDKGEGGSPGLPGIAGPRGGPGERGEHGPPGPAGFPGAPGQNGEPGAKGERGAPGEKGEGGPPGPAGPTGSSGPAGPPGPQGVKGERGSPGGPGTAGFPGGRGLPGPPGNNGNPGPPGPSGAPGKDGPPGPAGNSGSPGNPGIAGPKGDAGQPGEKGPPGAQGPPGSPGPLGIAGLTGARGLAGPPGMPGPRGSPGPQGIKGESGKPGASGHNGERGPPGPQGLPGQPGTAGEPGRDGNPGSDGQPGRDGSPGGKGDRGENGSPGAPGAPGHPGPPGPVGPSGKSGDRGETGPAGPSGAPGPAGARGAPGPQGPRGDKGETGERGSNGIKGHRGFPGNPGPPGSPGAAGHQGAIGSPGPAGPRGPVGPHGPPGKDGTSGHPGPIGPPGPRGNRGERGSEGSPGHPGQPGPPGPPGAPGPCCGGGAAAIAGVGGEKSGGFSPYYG
# Procedure: The descending aorta was dissected and postfixed for 1.5 hours in the same fixative at room temperature. […] The descending aorta was then frozen in Tissue Tek OCT (Sakura, Tokyo, Japan). Frozen 12 micrometer cross sections of the descending aorta were cut using a cryostat (Microm, VWR, West Chester, Pa.) onto poly-1-Lysine (3 mg/ml; Sigma) coated Superfrost Plus microscope slides (VWR). Slides were stored at −80° C. until staining.
# Slides containing descending aorta sections were placed at 37° C. for 6 minutes and then tissue sections were encircled with the hydrophobic substance contained in a PAP pen (RPI, Mount Prospect, Ill.). Slides were then washed 2 times for 7.5 minutes each in 0.1 M phosphate buffer, pH 6.9 (PB). Sections were then incubated for 1 hour at room temperature in a pool of solution, bordered by the hydrophobic markings, containing a 1:50 dilution of normal donkey serum (Jackson ImmunoResearch Laboratories, Inc., West Grove, Pa.) diluted with PBX. PBX is made by adding 300 microliters of Triton X-100 (Sigma) to 100 ml of 0.1M PB. Slides were than washed three times for 10 minutes each in 0.1M PB. […] Slides were then washed three times for 10 minutes each in 0.1M PB. […] Finally, slides were coverslipped using Vectashield (Vector Laboratories, Burlingame, Calif.) and the sites of GPVI binding to mouse descending aorta sections was observed using a fluorescence microscope.
molecule,measurement,setting,value
monoclonal antibody 7H14.1 (negative control),Baboon fluorescence intensity,[1],9
same,Baboon platelets % positive,[1],6.8%
same,Human fluorescence intensity,[2],7
same,Human platelets % positive,[2],1.4%
monoclonal antibody 7120.2 (negative control),Kd,[3],210 nM
same,Baboon fluorescence intensity,[1],10
same,Baboon platelets % positive,[1],9%
same,Human fluorescence intensity,[2],7
same,Human platelets % positive,[2],1.6%
recombinant human soluble GPVI:Fc fusion protein (rhusGPVI:Fc) (from UniProt Q9HCN6 21-269),"concentration of rhusGPVI:Fc needed for inhibition, against that needed for Cvx",collagen type I,10 fold
B1,Baboon fluorescence intensity,[4],72
same,Baboon platelets % positive,[4],95%
same,IC50,[5],4 nM
B2,binding result,[6],no binding
same,binding result,[7],binds
B3,binding result,[8],binds
same,binding result,[9],no binding
B4,binding result,[10],no binding
